What is called stoichiometry N is the number of molecules, sites or subunits per partner or assembly.

Experiment [1] has as its target opossum MDM2 421-C, GST-tag removed (Monodelphis domestica (opossum)). The experiment in a line: SEC; GST-MDM2 variants (3 mg/mL) incubated with 1:10 TEV for 16-20 h at 4 °C; soluble fraction of the cleaved products on Superdex 75 Increase 10/300; comparison with molecular weight markers and SDS-PAGE. (In general: Size exclusion chromatography separates by hydrodynamic size, large species first.)

In experiment [2] the target is Xenopus tropicalis MDM2 414-C (MDM2^f), GST-tag removed (Xenopus tropicalis (western clawed frog)). The experiment in a line: crystal structure; MDM2^f or MDM2^hGT mixed with UbcH5B–Ub at 1:1 ratio; crystals grown at 19 °C by vapour diffusion.
Experiment [3] has the same target. The experiment in a line: SEC; cleaved MDM2 variants after removal of the GST-tag on HiLoad 16/600 Superdex 75; oligomeric state by comparison with molecular weight markers.
For experiment [4] the target is unchanged. The experiment in a line: crystal structure; free MDM2 RING domains (MDM2^z, MDM2^f); crystals grown at 19 °C by vapour diffusion.

For “opossum MDM2 421-C, GST-tag removed (domain or fragment)”, in experiment [1], the stoichiometry N came out at 2.

Turning to “Xenopus tropicalis MDM2 414-C (MDM2^f), GST-tag removed (domain or fragment)”, the stoichiometry N in experiment [2], in experiment [3] and in experiment [4] was 2 in each case.

The values above are taken from article PMC7895813.
